Data reported in the supplement of paper PMC10266784.

B1: library; numbered along this chain (parent)
chain: MAAAAAAAAEQQSSNGPVKKSMREKAVERRSVNKEHNSNFKAGYIPIDEDRLHKTGLRGRKGNLAICVIILLFILAVINLIITLVIWAVIRIGPNGCDSMEFHESGLLRFKQVSDMGVIHPLYKSTVGGRRNENLVITGNNQPIVFQQGTTKLSVENNKTSITSDIGMQFFDPRTQNILFSTDYETHEFHLPSGVKSLNVQKASTERITSNATSDLNIKVDGRAIVRGNEGVFIMGKTIEFHMGGNMELKAENSIILNGSVMVSTTRLPSSSSGDQLGSGDWVRYKLCMCADGTLFKVQVTSQNMGCQISDNPCGNTH

Variants of: B1
Experiment: SGCB cell-surface expression functional score (HA stain, bin4 vs bin1, normalised to synonymous) (log10 ratio); higher = more cell-surface SGCB (functional)
Method: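 Deep mutational scan of full-length human SGCB (YFP-SGCB-HA, NNN codon sublibraries A-F) delivered by lentivirus at low MOI into ADG-HEK293 cells stably expressing SGCA, SGCD and SGCG. YFP-positive cells were stained for surface HA on unpermeabilized cells and FACS-sorted into bins. The functional score is log10(frequency in high bin 4 / frequency in low bin 1), normalised per chunk so that synonymous variants have mean 0 and SD 0.5. Scores are the median over codons and over duplicate biological replicates; scores below -0.5 are called non-functional. Scale: negative means deleterious.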

SGCB cell-surface expression functional score (log10): each site, then its substitutions
K61: L 0.26; S 0.07; W 0.05; F 0.7; V 0.07; Y 0.64; T 0.03; H -0.27; Q -0.08; C 0.35; M -0.03; R -0.23; G 0.03; E -0.08; D -0.36; N -0.39; P -0.2; A -0.12; I 0.48
L71: C -0.37; S 0.06; Y -0.5; M 0.01; A 0.26; P -0.04; G 0.23; N 0.19; R -0.37; E 0.1; I -0.45; V 0.22; T 0.07; D -0.08; H 0.06; Q 0.12; W 0.61; K 0.36; F -0.14
G62: K -0.29; A 0.02; M 0.13; F 0.5; N -0.29; S 0.18; P 0.36; Q 0.34; T -0.09; H 0.18; L 0.53; W -0.11; D 0.29; R 0.23; C 0.33; V -0.21; I 0.26; Y -0.05; E 0.11
V68: L -0.04; F 0.55; I 0.05; H -0.35; N 0.03; M -0.35; G 0.24; R 0.06; Y -0.25; Q -0.15; C 0.91; A -0.01; W 0.12; T 0.29; P 0; E -0.1; S 0.36; K 0; D -0.25
L57: W 0.44; C 0.07; T 0.18; V 0.2; E 0.04; Y 0.49; S 0.11; F 0.06; H -0.36; Q -0.03; N 0.02; M 0.09; G 0.28; K 0.32; D -0.4; P -0.03; A 0.45; I 0.49; R 0.07
G56: T 0.4; I 0.26; Q -0.39; P 0.22; W -0.16; N -0.1; Y 0.34; S 0.21; M -0.31; H 0.15; L 0.23; V 0.05; R 0.14; K 0.41
R58: N 0.17; T 0.24; F 0.09; K -0.66; E -0.08; I 0.13; S -0.22; L 0; M -0.15; P 0.27; Y 0.71; G 0; H 0.19; A 0.08; C -0.55; W -0.26; Q -0.12; V -0.04; D 0.21
A65: Y 0.12; M -0.02; N 0.06; S 0.01; F 0.21; D 0.08; G -0.03; R -0.07; Q -0.13; K 0.51; I 0.15; T -0.01; C 0.32; V 0.3; W 0.48; H -0.17; E -0.2; L 0.15; P -0.28
N63: W 0.22; L 0.03; E -0.28; R 0.07; G 0.13; Y 0.25; P 0.32; D -0.06; A -0.08; F 0.08; V -0.44; M -0.11; C -0.16; S -0.25; H 0.28; I -0.14; K 0.24; Q 0.11; T 0.43
I69: W 0.3; E 0.15; K -0.04; F 0.52; C 0.05; L 0.2; V -0.05; H 0.03; R 0.11; N 0.62; D -0.11; G 0.2; T -0.01; Y 0.41; P 0.36; S 0.09; M 0.22; Q 0.03; A -0.17
C67: F -0.08; I 0.33; V 0.28; H 0.38; E 0.39; K 0.29; W 0.43; S 0.04; T -0.03; R 0.08; D 0.11; A 0.57; Q 0.4; Y 0.04; M -0.01; L 0.25; G 0.18; N 0.19; P 0.26
R60: S 0.18; Y -0.12; F -0.05; D 0.39; T 0.01; P -0.19; A -0.28; V -0.09; Q 0.38; N 0.1; C 0.47; K 0.08; H -0.21; L 0.11; W -0.101; E 0.4; G -0.33; I 0.5
G59: M 0.31; V 0.33; K 0.12; P 0.12; N 0; L 0.09; H 0.1; T 0.25; D 0.04; Q -0.24; R -0.17; F 0.13; E -0.2; A -0.59; C 0.05; Y 0.17; S -0.13; I -0.01
L72: R -0.09; W 0.28; K -0.18; F 0.07; Q -0.21; P -0.11; H -0.05; M 0.13; N -0.44; Y -0.04; A -0.23; C 0.42; I 0.41; G 0.44; D -0.14; E -0.02; V 0.27; T 0.45; S -0.07
I66: Q -0.15; G 0; S 0.07; L -0.78; K 0.5; T 0.03; F -0.03; P -0.35; V 0.2; A -0.11; N 0.47; Y 0.29; W 0.01; D 0; H -0.2; C 0.65; E 0.12; M 0.3; R 0.43
L64: I -0.1; Q 0.03; M -1.4; H 0.16; F 0.43; W -0.254; V 0.25; K 0.15; D -0.4; R 0.07; C 0.26; N 0.28; E -0.26; Y 0.16; G -0.2; P -0.26; S 0.31; A -0.31; T 0.11
F73: K 0.54; M -0.01; A 0.13; Q 0.6; Y 0.84; T -0.22; H 0.54; P 0.07; E 0.42; N 0.47; D 0.36; L 0.03; R -0.59; I -0.11; C 0.34; S -0.15; V -0.23; G 0.22
I70: Q 0.06; E -0.22; M 0.77; C -0.3; R -0.16; N 0.07; S 0.36; P 0.16; Y -0.14; F -0.2; G 0.35; A 0.41; H -0.21; L -0.1; D -0.14; V 0.53; W 1.07; T -0.22; K 0.19
